Test results reported in IntAct's records for PubMed 15150238.

B1: DnaA regulatory inactivator Hda (Escherichia coli (strain K12)), P69931 (parent)
chain: MNTPAQLSLPLYLPDDETFASFWPGDNSSLLAALQNVLRQEHSGYIYLWAREGAGRSHLLHAACAELSQRGDAVGYVPLDKRTWFVPEVLDGMEHLSLVCIDNIECIAGDELWEMAIFDLYNRILESGKTRLLITGDRPPRQLNLGLPDLASRLDWGQIYKLQPLSDEDKLQALQLRARLRGFELPEDVGRFLLKRLDREMRTLFMTLDQLDRASITAQRKLTIPFVKEILKL

What was measured:
dpo3b_ecoli dnaN, P0A988 [1] = variants of: B1; settings: with dpo3b_ecoli dnaN
dpo3b_ecoli dnaN, P0A988 [2] = variants of: B1; settings: with dpo3b_ecoli dnaN; remark: listed apart in the source

Chain of dpo3b_ecoli dnaN, P0A988 (P0A988 whole entry): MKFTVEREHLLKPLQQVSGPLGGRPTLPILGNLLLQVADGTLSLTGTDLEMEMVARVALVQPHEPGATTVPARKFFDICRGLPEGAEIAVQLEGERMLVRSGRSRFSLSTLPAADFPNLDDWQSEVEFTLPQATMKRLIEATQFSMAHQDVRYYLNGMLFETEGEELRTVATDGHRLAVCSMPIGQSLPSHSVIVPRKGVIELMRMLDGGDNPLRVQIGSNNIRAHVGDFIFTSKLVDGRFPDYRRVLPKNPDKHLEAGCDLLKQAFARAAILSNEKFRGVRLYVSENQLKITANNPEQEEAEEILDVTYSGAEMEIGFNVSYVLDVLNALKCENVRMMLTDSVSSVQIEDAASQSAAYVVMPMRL

MNTPAQLSAALYLPDDETFASFWPGDNSSLLAALQNVLRQEHSGYIYLWAREGAGRSHLLHAACAELSQRGDAVGYVPLDKRTWFVPEVLDGMEHLSLVCIDNIECIAGDELWEMAIFDLYNRILESGKTRLLITGDRPPRQLNLGLPDLASRLDWGQIYKLQPLSDEDKLQALQLRARLRGFELPEDVGRFLLKRLDREMRTLFMTLDQLDRASITAQRKLTIPFVKEILKL [L9A;P10A]
effect of a mutation on the interaction (dpo3b_ecoli dnaN, P0A988 [1]): decreasing interaction | effect of a mutation on the interaction (dpo3b_ecoli dnaN, P0A988 [2]): disrupting interaction

MNTPAQASAPLYLPDDETFASFWPGDNSSLLAALQNVLRQEHSGYIYLWAREGAGRSHLLHAACAELSQRGDAVGYVPLDKRTWFVPEVLDGMEHLSLVCIDNIECIAGDELWEMAIFDLYNRILESGKTRLLITGDRPPRQLNLGLPDLASRLDWGQIYKLQPLSDEDKLQALQLRARLRGFELPEDVGRFLLKRLDREMRTLFMTLDQLDRASITAQRKLTIPFVKEILKL [L7A;L9A]
effect of a mutation on the interaction (dpo3b_ecoli dnaN, P0A988 [1]): decreasing interaction | effect of a mutation on the interaction (dpo3b_ecoli dnaN, P0A988 [2]): disrupting interaction
